Measurements as given in US20240124575A1.
Like-named read-outs stand apart in the source and are kept apart here. Values belong to the substance of their own block, whether it stands above or below them.

Columns and labels:
[1] = target: human CD33 on CHO-K1 cells (CHO-K1-human CD33) (human) (UniProt P20138); assay: FACS, clone CHO-K1-human CD33 B8
[2] = target: human CD33 on CHO-K1 cells (CHO-K1-human CD33) (human) (UniProt P20138); assay: FACS, clone CHO-K1-human CD33 B11
[3] = target: human CD33 on CHO-K1 cells (CHO-K1-human CD33) (human) (UniProt P20138); assay: FACS, clone CHO-K1-human CD33 C8
[4] = target: human CD33 on U937 cells (endogenous) (human) (UniProt P20138); assay: FACS, U937 cells
[5] = target: monkey CD33 protein (monkey); assay: ELISA, coated monkey CD33, antibody 0.001 nM
[6] = target: murine CD33 protein (murine) (UniProt Q63994); assay: ELISA, coated murine CD33, antibody 0.001 nM
[7] = target: murine CD33 protein (murine) (UniProt Q63994); assay: ELISA, coated murine CD33, antibody 0.1 nM
[8] = target: monkey CD33 protein (monkey); assay: ELISA, coated monkey CD33, antibody 10 nM
[9] = target: monkey CD33 protein (monkey); assay: ELISA, coated monkey CD33, antibody 1 nM
[10] = target: monkey CD33 protein (monkey); assay: ELISA, coated monkey CD33, antibody 0.001 nM; remark: listed apart in the source
[11] = target: monkey CD33 protein (monkey); assay: ELISA, coated monkey CD33, antibody 0.0001 nM
[12] = target: murine CD33 protein (murine) (UniProt Q63994); assay: ELISA, coated murine CD33, antibody 0.01 nM
[13] = target: murine CD33 protein (murine) (UniProt Q63994); assay: ELISA, coated murine CD33, antibody 1 nM
[14] = target: monkey CD33 protein (monkey); assay: ELISA, coated monkey CD33, antibody 0.01 nM
[15] = target: murine CD33 protein (murine) (UniProt Q63994); assay: ELISA, coated murine CD33, antibody 0.0001 nM
[16] = target: monkey CD33 protein (monkey); assay: ELISA, coated monkey CD33, antibody 0.01 nM; remark: listed apart in the source
[17] = target: monkey CD33 on HEK293T-monkey CD33 cells (monkey); assay: FACS on HEK293T-monkey CD33 cells
[18] = target: monkey CD33 protein (monkey); assay: ELISA, coated monkey CD33, antibody 1 nM; remark: listed apart in the source
[19] = target: monkey CD33 protein (monkey); assay: ELISA, coated monkey CD33, antibody 10 nM; remark: listed apart in the source
[20] = target: murine CD33 protein (murine) (UniProt Q63994); assay: ELISA, coated murine CD33, antibody 10 nM
[21] = target: murine CD33 protein (murine) (UniProt Q63994); assay: ELISA, coated murine CD33, antibody 100 nM
[22] = target: monkey CD33 protein (monkey); assay: ELISA, coated monkey CD33, antibody 0.1 nM
[23] = target: monkey CD33 protein (monkey); assay: ELISA, coated monkey CD33, antibody 0.0001 nM; remark: listed apart in the source
[24] = target: monkey CD33 on HEK293T-monkey CD33 cells (monkey); assay: FACS on HEK293T-monkey CD33 cells; remark: listed apart in the source
[25] = target: monkey CD33 protein (monkey); assay: ELISA, coated monkey CD33, antibody 100 nM
[26] = target: monkey CD33 protein (monkey); assay: ELISA, coated monkey CD33, antibody 100 nM; remark: listed apart in the source

murine CD33 protein (murine), sequence (Q63994 18-240 limits assumed): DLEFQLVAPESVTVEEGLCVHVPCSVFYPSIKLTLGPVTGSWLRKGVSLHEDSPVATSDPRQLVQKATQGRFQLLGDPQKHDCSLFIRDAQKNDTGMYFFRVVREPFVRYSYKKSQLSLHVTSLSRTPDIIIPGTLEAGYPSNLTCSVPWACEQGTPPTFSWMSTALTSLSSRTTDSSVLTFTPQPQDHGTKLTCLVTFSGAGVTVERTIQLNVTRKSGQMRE
human CD33 on CHO-K1 cells (CHO-K1-human CD33) (human), sequence (P20138 18-364): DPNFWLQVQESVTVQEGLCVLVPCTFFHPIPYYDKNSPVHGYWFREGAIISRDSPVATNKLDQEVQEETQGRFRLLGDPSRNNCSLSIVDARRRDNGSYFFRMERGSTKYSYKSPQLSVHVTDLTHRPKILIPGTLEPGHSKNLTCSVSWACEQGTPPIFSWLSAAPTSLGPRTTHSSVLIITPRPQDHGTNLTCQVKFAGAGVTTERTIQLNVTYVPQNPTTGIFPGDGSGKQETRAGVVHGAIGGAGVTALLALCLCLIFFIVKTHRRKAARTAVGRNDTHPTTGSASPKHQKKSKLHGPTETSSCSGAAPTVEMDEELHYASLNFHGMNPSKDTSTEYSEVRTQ
human CD33 on U937 cells (endogenous) (human), sequence (P20138 18-364): as above

Mean fluorescence intensity of cells [1]: 30.9 MFI
Mean fluorescence intensity of cells [2]: 30.9 MFI
Mean fluorescence intensity of cells [3]: 30.9 MFI
Mean fluorescence intensity of cells [4]: 114 MFI
Substance: IgG subtype control (antibody)

OD450 [5]: 0.04 OD450
OD450 [6]: 0.06 OD450
OD450 [7]: 0.06 OD450
OD450 [8]: 0.05 OD450
OD450 [9]: 0.04 OD450
OD450 [10]: 0.07 OD450
OD450 [11]: 0.06 OD450
OD450 [12]: 0.06 OD450
OD450 [13]: 0.06 OD450
OD450 [14]: 0.05 OD450
OD450 [15]: 0.06 OD450
OD450 [16]: 0.04 OD450
Max MFI [17]: 322 MFI
OD450 [18]: 0.05 OD450
OD450 [19]: 0.06 OD450
OD450 [20]: 0.07 OD450
OD450 [21]: 0.08 OD450
OD450 [22]: 0.05 OD450
OD450 [23]: 0.05 OD450
Max MFI [24]: 107 MFI
OD450 [25]: 0.06 OD450
OD450 [26]: 0.08 OD450
Substance: anti-hel-hIgG1 antibody
